Read-outs that look alike come from different tables or passages of the source. *1 amine or outer side, *2 acyl side, *3 side chain or, on linkers, in order; H or OH if unused. Where no end group is shown, it is not given here. Side-chain parts run from the residue outwards. [ ]: non-standard residue; d: D form. γGlu = O=C(O)[C@H](CCC(=O)[*:2])N[*:1]; AEEA = NCCOCCOCC(=O)O; Aib = CC(C)(N)C(=O)O
T1: human glucose-dependent insulinotropic polypeptide receptor (GIP receptor) (human, UniProt P48546 22-466)
T1 sequence (looked up): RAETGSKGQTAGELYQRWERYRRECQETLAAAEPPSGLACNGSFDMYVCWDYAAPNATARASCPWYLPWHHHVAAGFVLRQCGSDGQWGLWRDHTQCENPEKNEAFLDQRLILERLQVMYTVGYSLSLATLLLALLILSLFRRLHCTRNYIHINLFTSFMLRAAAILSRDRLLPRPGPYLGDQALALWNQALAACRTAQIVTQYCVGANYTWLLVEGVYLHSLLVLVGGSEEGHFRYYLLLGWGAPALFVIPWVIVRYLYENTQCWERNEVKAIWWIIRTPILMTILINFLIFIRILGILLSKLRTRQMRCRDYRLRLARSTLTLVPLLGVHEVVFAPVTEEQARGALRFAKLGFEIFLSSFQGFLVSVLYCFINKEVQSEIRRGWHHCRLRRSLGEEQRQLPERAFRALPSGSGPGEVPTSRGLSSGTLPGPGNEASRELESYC


Tests used:
Assay in all cases: cell-based or functional assay
[1] = molecular target: human glucose-dependent insulinotropic polypeptide receptor (GIP receptor) (human) (UniProt P48546)
[2] = molecular target: human glucagon-like peptide-1 receptor (GLP-1R) (human) (UniProt P43220)
[3] = molecular target: human glucose-dependent insulinotropic polypeptide receptor (GIP receptor) (human) (UniProt P48546); remark: listed apart in the source
[4] = molecular target: human glucagon-like peptide-1 receptor (GLP-1R) (human) (UniProt P43220); remark: listed apart in the source
[5] = molecular target: T1, human glucose-dependent insulinotropic …
[6] = molecular target: T2, human glucagon-like peptide-1 receptor (GLP-1R) (human, UniProt P43220 24-463)
[7] = molecular target: T1, human glucose-dependent insulinotropic …; remark: listed apart in the source
[8] = molecular target: T2, human glucagon-like peptide-1 receptor …; remark: listed apart in the source

T2 sequence (P43220 24-463): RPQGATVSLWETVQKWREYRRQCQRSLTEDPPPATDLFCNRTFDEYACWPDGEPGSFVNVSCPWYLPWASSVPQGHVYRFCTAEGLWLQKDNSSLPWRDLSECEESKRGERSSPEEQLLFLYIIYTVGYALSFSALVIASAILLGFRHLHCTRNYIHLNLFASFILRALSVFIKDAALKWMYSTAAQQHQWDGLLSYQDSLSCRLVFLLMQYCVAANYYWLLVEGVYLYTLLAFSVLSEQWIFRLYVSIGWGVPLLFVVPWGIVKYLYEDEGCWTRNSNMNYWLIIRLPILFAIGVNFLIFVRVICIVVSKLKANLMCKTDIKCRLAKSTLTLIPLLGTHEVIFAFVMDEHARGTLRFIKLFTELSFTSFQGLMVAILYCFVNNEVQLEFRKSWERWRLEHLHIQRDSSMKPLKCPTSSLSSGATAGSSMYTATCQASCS
Sequence of human glucagon-like peptide-1 receptor (GLP-1R) (human) (P43220 24-463): as above

Row | Molecule | Human GIP receptor activity (EC50 nM); cAMP HTRF in CHO-K1 cells transfected with hGIP receptor [5] [nM] | Human GLP-1R activity (EC50 nM); cAMP HTRF in CHO-K1/GLP-1R/CRE-luc cells [6] [nM] | also measured
1 | LY3298176 (peptide) |  |  | Human GIP receptor activity (EC50 nM); cAMP HTRF in CHO-K1 cells transfected with hGIP receptor [1]: 0.031 nM; Human GLP-1R activity (EC50 nM); cAMP HTRF in CHO-K1/GLP-1R/CRE-luc cells [2]: 0.078 nM; Human GIP receptor activity (EC50 nM); cAMP HTRF in CHO-K1 cells transfected with hGIP receptor [3]: 0.056 nM; Human GLP-1R activity (EC50 nM); cAMP HTRF in CHO-K1/GLP-1R/CRE-luc cells [4]: 0.13 nM
2 | Natural GIP (from UniProt P09681 52-93) (ligand) |  |  | Human GIP receptor activity (EC50 nM); cAMP HTRF in CHO-K1 cells transfected with hGIP receptor [1]: 0.006 nM
3 | Y[Aib]EGTFTSDYSIYLEK([AEEA-AEEA-γGlu-C20‑OH])IAAQEFVNWLIAGGPSSGAPPPS-NH2 [compound 9#] | 0.04 | 0.049 | 
4 | Y[Aib]EGTFTSDYSIYK([AEEA-AEEA-γGlu-C20‑OH])DKIAAQEFVNWLLAGGPSSGAPPPS-NH2 [compound 7#] |  |  | Human GIP receptor activity (EC50 nM); cAMP HTRF in CHO-K1 cells transfected with hGIP receptor [7]: 0.11 nM; Human GLP-1R activity (EC50 nM); cAMP HTRF in CHO-K1/GLP-1R/CRE-luc cells [8]: 0.021 nM
5 | Y[Aib]EGTFTSDYSIYLEK([AEEA-AEEA-γGlu-C20‑OH])IAAQEFINWLIAGGPSSGAPPPS-NH2 [compound 10#] | 0.056 | 0.065 | 
6 | Y[Aib]EGTFTSDYSIYK([AEEA-AEEA-γGlu-C20‑OH])ERIAAQEFINWLIAGGPSSGAPPPS-NH2 [compound 15#] | 0.23 | 0.015 | 
7 | Y[Aib]EGTFTSDYSIYK([AEEA-AEEA-γGlu-C20‑OH])EKIAAQEFVNWLLAGGPSSGAPPPS-NH2 [compound 18#] | 0.06 | 0.013 | 
8 | Y[Aib]EGTFTSDYSIYK([AEEA-AEEA-γGlu-C20‑OH])EKIAAQEFINWLIAGGPSSGAPPPS-NH2 [compound 14#] | 0.13 | 0.013 | 
9 | Y[Aib]EGTFTSDYSIYK([AEEA-AEEA-γGlu-C20‑OH])ERIAAQEFVNWLIAGGPSSGAPPPS-NH2 [compound 13#] | 0.13 | 0.017 | 
10 | Y[Aib]EGTFTSDYSIYK([AEEA-AEEA-γGlu-C20‑OH])EKIAAQEFINWLLAGGPSSGAPPPS-NH2 [compound 16#] | 0.095 | 0.029 | 
11 | Y[Aib]EGTFTSDYSIYK([AEEA-AEEA-γGlu-C20‑OH])EKIAAQEFVNWLIAGGPSSGAPPPS-NH2 [compound 12#] | 0.17 | 0.03 | 
12 | Y[Aib]EGTFTSDYSIYK([AEEA-AEEA-γGlu-C20‑OH])ERIAAQEFVNWLLAGGPSSGAPPPS-NH2 [compound 17#] | 0.11 | 0.022 | 

— US20230190879A1 (JIANGSU HENGRUI PHARMACEUTICALS, published 2023)
